Test results: US6515118

Key:
[1] = system: Ac-Asp-Glu-Ala-Asp-aldehyde (Ac-DEAD-CHO)
[2] = target: T1, DFF-40, 40-kDa subunit of DNA Fragmentation Factor (DFF), purified from HeLa cell S-100 (UniProt O76075)
T1 sequence: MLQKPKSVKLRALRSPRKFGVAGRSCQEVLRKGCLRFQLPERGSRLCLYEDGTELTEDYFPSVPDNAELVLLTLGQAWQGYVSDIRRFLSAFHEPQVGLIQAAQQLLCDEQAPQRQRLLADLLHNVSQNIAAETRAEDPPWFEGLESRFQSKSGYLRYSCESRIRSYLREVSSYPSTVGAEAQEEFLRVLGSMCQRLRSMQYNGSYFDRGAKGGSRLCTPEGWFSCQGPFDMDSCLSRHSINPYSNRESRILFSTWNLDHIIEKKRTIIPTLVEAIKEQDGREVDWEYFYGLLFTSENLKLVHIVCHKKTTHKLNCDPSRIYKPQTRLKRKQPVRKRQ

[3] = system: DFF-45, 45-kDa subunit of DNA Fragmentation Factor (DFF), purified from HeLa cell S-100
[4] = system: lamin B1 in co-incubated nuclei
[5] = system: poly(ADP-ribose) polymerase (PARP) in co-incubated nuclei
[6] = system: recombinant DFF-45 fusion protein with a six-histidine tag at the NH2-terminus

In the case of active recombinant caspase-3, the “cleavage of PARP and lamin B1 in co-incubated nuclei (immunoblot)” value [1] is reported as “Ac-DEAD SEQ ID NO:6-CHO still blocked the cleavage of both PARP and lamin B1 in the co-incubated nuclei”, the “cleavage of biotinylated DFF (SDS-PAGE, streptavidin-peroxidase chemiluminescence)” value [2] is reported as “the 40-kDa subunit remained intact” and the “cleavage of biotinylated DFF (SDS-PAGE, streptavidin-peroxidase chemiluminescence)” value [3] is reported as “Incubation with caspase-3 resulted in the cleavage of the 45-kDa subunit into fragments of molecular masses of 30 kDa and 11 kDa”. The “time course of lamin B1 cleavage in nuclei (immunoblot)” value [4] was “the rate of Lamin B1 cleavage by caspase-3 remained the same with or without DFF”, the “rate of PARP cleavage in nuclei (immunoblot)” value [5] was “The same conclusion was obtained when the rate of cleavage of PARP was measured” and the “cleavage of the purified fusion protein (SDS-PAGE)” value [6] was “Incubation of this fusion protein with caspase-3 resulted in its cleavage into three fragments of 30 kDa, 18 kDa and 11 kDa at the early time point”.
